Reference: the supplement of paper PMC7125110
± gives the standard error. For some of these results: Fewer inactive variants are shown than the library holds.

B1: glmS ribozyme (parent)
chain: AUAAAAGCGCCAGAACUACAGAAAUGUAGUUGACGAGGAGGAGGUUUAUCGAAUUUUCGGCGGAUGCCUCCAAA

Key:
Settings in all cases: with glucosamine-6-phosphate
[1] = variants of: B1; assay: kcat; higher = faster cleavage; RNA array
Method in brief: (§1)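 Barcoded ribozyme variants were transcribed in situ on sequenced MiSeq chips by E. coli RNA polymerase. At 37 °C, a hybridised Cy3 probe tracked them while glucosamine-6-phosphate (40 μM to 10 mM) in HEPES/KCl/Mg(OAc)2 buffer flowed in and tiles were imaged over ~14 h. Per-tile medians of signals normalised to baseline and to non-cleaving reference variants were fit to one- or two-exponential decays, giving kobs. kcat and KM came from weighted Michaelis–Menten fits across concentrations.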

[2] = variants of: B1; assay: KM; higher = weaker cofactor use; RNA array
Method in brief: as §1

[3] = variants of: B1; assay: self-cleavage kobs at 160 uM GlcN6P; higher = faster cleavage; RNA array
Method in brief: as §1

[4] = variants of: B1; assay: self-cleavage kobs at 640 uM GlcN6P; higher = faster cleavage; RNA array
Method in brief: as §1

[5] = variants of: B1; assay: self-cleavage kobs at 2500 uM GlcN6P; higher = faster cleavage; RNA array
Method in brief: as §1

[6] = variants of: B1; assay: self-cleavage kobs at 10000 uM GlcN6P; higher = faster cleavage; RNA array
Method in brief: as §1

[7] = variants of: B1; assay: self-cleavage kobs at 40 uM GlcN6P; higher = faster cleavage; RNA array
Method in brief: as §1

Variant | kcat [1] [s⁻¹] | KM [2] [µM] | self-cleavage kobs at 160 uM GlcN6P [3] [s⁻¹] | self-cleavage kobs at 640 uM GlcN6P [4] [s⁻¹] | self-cleavage kobs at 2500 uM GlcN6P [5] [s⁻¹] | self-cleavage kobs at 10000 uM GlcN6P [6] [s⁻¹] | self-cleavage kobs at 40 uM GlcN6P [7] [s⁻¹]
A12U G32U | 0.000501 ± 4.8e-05 | 4270 ± 690 | 2.63e-05 ± 1.2e-05 | 6.09e-05 ± 8.4e-06 | 0.000196 ± 2.1e-05 | 0.000345 ± 3.4e-05 | –
G13C C67G | 1.33e-05 ± 8.3e-07 | 189 ± 76 | – | – | – | – | –
G13U U46G | 0.000174 ± 4.9e-06 | 1460 ± 120 | – | 5.44e-05 ± 1.5e-05 | 0.000107 ± 2.4e-05 | 0.000153 ± 2.1e-05 | –
G13C A14C C61A C67U | 3.08e-05 ± 1.3e-05 | – | – | 4.47e-05 ± 1.8e-05 | – | – | –
A12U G60U G66C C68U | < 1e-05 | – | – | – | – | < 1e-05 | –
G13A A15U | 0.00015 ± 1.5e-05 | 3530 ± 1100 | – | – | 6.03e-05 ± 2.6e-05 | 0.000111 ± 1.5e-05 | –
G13A A15G | 0.000875 ± 0.00018 | 1840 ± 670 | 6.23e-05 ± 1.3e-05 | 0.000327 ± 5.6e-05 | 0.000431 ± 7.3e-05 | 0.000784 ± 0.00011 | –
A12U U47C | 0.0109 ± 0.0038 | 1790 ± 840 | 0.000599 ± 0.0001 | 0.00299 ± 0.00033 | 0.0111 ± 0.0021 | 0.00873 ± 0.0011 | 0.00032 ± 3.3e-05
A12U U47A | 0.063 ± 0.02 | 1490 ± 570 | 0.0041 ± 0.00089 | 0.0249 ± 0.0068 | 0.0403 ± 0.011 | 0.0554 ± 0.01 | 0.00189 ± 0.00018
A12U G59A | 0.000207 ± 1.4e-05 | 3140 ± 430 | – | 3.84e-05 ± 8.7e-06 | 8.97e-05 ± 8.8e-06 | 0.000159 ± 1.8e-05 | –
G13C C70A | 1.11e-05 ± 3.3e-06 | – | – | – | – | – | –
G13C C70U | 0.000154 ± 4.9e-06 | 1400 ± 140 | – | 4.57e-05 ± 8.9e-06 | 0.000103 ± 1.2e-05 | 0.000134 ± 1e-05 | –
G13C C16U | 0.0002194 ± 1.1e-06 | 4190 ± 58 | – | – | 8.19e-05 ± 2.5e-05 | 0.000155 ± 1.9e-05 | –
G13C A53G | 0.000174 ± 2.8e-05 | 3550 ± 1100 | – | 2.97e-05 ± 9e-06 | 7.05e-05 ± 7.7e-06 | 0.00013 ± 1.9e-05 | –
G13U U56A | 0.0005 ± 2.3e-05 | 1880 ± 150 | 4.35e-05 ± 1.3e-05 | 0.000124 ± 1.6e-05 | 0.000287 ± 3.6e-05 | 0.000422 ± 8.8e-05 | –
A12U C70U | 0.00743 ± 0.0034 | – | 0.0134 ± 0.0027 | 0.0108 ± 0.0021 | 0.0055 ± 0.0012 | – | 0.00232 ± 0.00023

Variant | kcat [1] [s⁻¹] | KM [2] [µM] | self-cleavage kobs at 160 uM GlcN6P [3] [s⁻¹] | self-cleavage kobs at 640 uM GlcN6P [4] [s⁻¹] | self-cleavage kobs at 2500 uM GlcN6P [5] [s⁻¹] | self-cleavage kobs at 10000 uM GlcN6P [6] [s⁻¹] | self-cleavage kobs at 40 uM GlcN6P [7] [s⁻¹]
G13C U69G | 5.45e-05 ± 1.1e-05 | – | 4.33e-05 ± 1.6e-05 | 9.44e-05 ± 2.5e-05 | 4.52e-05 ± 1.2e-05 | – | 3.61e-05 ± 1.3e-05
A14C C16U | 0.00104 ± 0.00016 | 922 ± 250 | 0.000144 ± 1.9e-05 | 0.000451 ± 4.8e-05 | 0.000655 ± 7.7e-05 | 0.00118 ± 0.00016 | 5.34e-05 ± 1.1e-05
G13A C71U | 0.00103 ± 0.00012 | 4730 ± 920 | 2.52e-05 ± 8.2e-06 | 0.000138 ± 2e-05 | 0.000358 ± 5.1e-05 | 0.000698 ± 5.9e-05 | –
G13U C61A | 1.33e-05 ± 2.2e-06 | – | – | – | – | – | –
G13U C68G | 2.36e-05 ± 6.5e-06 | – | – | – | – | – | –
G13U U30A | 5.44e-05 ± 3.6e-06 | 728 ± 260 | – | 3.03e-05 ± 1.5e-05 | 3.78e-05 ± 1.1e-05 | 5.22e-05 ± 8.6e-06 | –
G13U U30C | 0.000509 ± 0.00014 | 3530 ± 1600 | 3.75e-05 ± 1e-05 | 6.12e-05 ± 1.2e-05 | 0.000253 ± 3.1e-05 | 0.000354 ± 4.9e-05 | –
G13U G38C | < 1e-05 | – | – | < 1e-05 | – | < 1e-05 | –
G13C A15U | 0.000131 ± 1.4e-05 | 2810 ± 940 | – | 3.78e-05 ± 1e-05 | 5.63e-05 ± 7.5e-06 | 0.000103 ± 6.3e-06 | –
G13C A15G | 0.000223 ± 1.1e-05 | 2950 ± 270 | – | 4.12e-05 ± 8e-06 | 9.91e-05 ± 1.3e-05 | 0.000176 ± 2.8e-05 | –
G13A U47A | 0.000438 ± 6e-05 | 3210 ± 750 | – | 7.42e-05 ± 1.6e-05 | 0.000178 ± 3.2e-05 | 0.000349 ± 6.5e-05 | –
A14C G29A A53U G59A C68U | < 1e-05 | – | – | – | – | – | –
A12U G13C | < 1e-05 | – | < 1e-05 | < 1e-05 | – | – | < 1e-05
A12U C71U | 0.0948 ± 0.017 | 1790 ± 350 | 0.00891 ± 0.0017 | 0.0214 ± 0.0049 | 0.0611 ± 0.02 | 0.0826 ± 0.025 | 0.00207 ± 0.00018
G13C A14G | 0.00129 ± 0.00022 | 3980 ± 950 | 4.16e-05 ± 8.8e-06 | 0.000189 ± 2.5e-05 | 0.000557 ± 7.3e-05 | 0.000855 ± 0.00013 | –
A14C G26A | 0.00194 ± 0.00022 | 1030 ± 190 | – | 0.000887 ± 0.00023 | 0.00142 ± 0.00041 | 0.00166 ± 0.00037 | 6.7e-05 ± 1.7e-05
